The values that follow come from article PMC4359074.

The target of the assay is mono-nucleosome di-methylated at H3K4 (Xenopus). The experiment in a line: native gel or EMSA. For orientation: A gel shift assay detects complexes by their altered migration in electrophoresis.

B1: GST-PHD_(Yng2) (domain or fragment)
chain: TLYCFCQRVSFGEMVACDGPNCKYEWFHYDCVNLKEPPKGTWYCPECKIE
modifications: not checked
B1: the Kd (in general, the free concentration of one partner at which half of the binding sites on the other are occupied at equilibrium, for simple one-to-one binding) is 10 µM.
